According to PMC2532785 (The EMBO Journal, 2008):
Positions count from the first letter of the chain named. In names and notes the source's numbering stands.

B1: WT Irga6, recombinant (enzyme, mouse, UniProt Q9QZ85 1-413, looked up)
chain: MGQLFSSPKSDENNDLPSSFTGYFKKFNTGRKIISQEILNLIELRMRKGNIQLTNSAISDALKEIDSSVLNVAVTGETGSGKSSFINTLRGIGNEEEGAAKTGVVEVTMERHPYKHPNIPNVVFWDLPGIGSTNFPPNTYLEKMKFYEYDFFIIISATRFKKNDIDIAKAISMMKKEFYFVRTKVDSDITNEADGKPQTFDKEKVLQDIRLNCVNTFRENGIAEPPIFLLSNKNVCHYDFPVLMDKLISDLPIYKRHNFMVSLPNITDSVIEKKRQFLKQRIWLEGFAADLVNIIPSLTFLLDSDLETLKKSMKFYRTVFGVDETSLQRLARDWEIEVDQVEAMIKSPAVFKPTDEETIQERLSRYIQEFCLANGYLLPKNSFLKEIFYLKYYFLDMVTEDAKTLLKEICLRN
B2: Irga6-K82A, recombinant (enzyme, mouse, UniProt Q9QZ85 1-413, looked up)
chain: B1 chain with K82A

Target: the molecule itself
Test: conventional and dynamic light scattering

Protein	binding result
B1	binds
B2	binds
